Assays:
[1] = target: T1, full-length human SIRPαV1 (NP_542970.1) on cells (human, UniProt P78324 31-504); assay: flow cytometry, CD14+ monocytes V1V1
T1 construct: one molecule for CHO-K1 and Expi-CHO transfectants (NP_542970.1) and for endogenous V1 on U-937 cells and on CD14+ monocytes of V1/V1 donors; also called CHO-hSIRPαV1; αV1 WT
Protocol: (§1) Antibody binding to primary human cells expressing SIRPα is evaluated by flow cytometry. Human peripheral blood mononuclear cells (PBMCs) from donors genotyped as homozygous for the SIRPα V1 allele, V2 allele, or heterozygous for both alleles are blocked with donkey IgG and incubated on ice with increasing concentrations of antibody for 60 minutes, washed and stained with AF647-conjugated donkey F(ab′)₂ anti-human IgG secondary reagent. […] Cells are washed, fixed, and analyzed by flow cytometry. Median fluorescent intensity of the CD14+ population was determined and used as a measure of antibody binding.

[2] = target: ED-tagged human SIRPα V1 receptor on Jurkat signaling reporter cells (human, UniProt P78324 31-504); assay: cell-based or functional assay
[3] = target: T2, full-length human SIRPαV2 (CAA71403.1) on cells (human, UniProt P78324 31-504); assay: flow cytometry, CHO-K1 cells
T2 construct: one molecule for CHO-K1 and Expi-CHO transfectants (CAA71403.1) and for endogenous V2 on THP-1 cells and on CD14+ monocytes of V2/V2 donors; also called CHO-hSIRPαV2; αV2 WT
Protocol: Antibody binding to cells expressing SIRPα is evaluated by flow cytometry. CHO-K1 parental cells (negative control), CHO-K1 cells expressing full-length human SIRPαV1 (NP_542970.1) or CHO-K1 cells expressing full-length human SIRPαV2 (CAA71403.1) are blocked with donkey IgG and incubated on ice with increasing concentrations of antibodies for 60 minutes, washed and stained with AF647-conjugated donkey F(ab′)₂ anti-human IgG secondary reagent. Cells are washed, fixed, and analyzed by flow cytometry. Median fluorescent intensity is determined and used as a measure of antibody binding.

[4] = target: T1, full-length human SIRPαV1 (NP_542970.1) …; assay: flow cytometry, competition with CD47 tetramer, monocytes V1V1
Protocol: Cells are washed, fixed, and analyzed by flow cytometry. Median fluorescent intensity of CD14+gated population is determined and used as a measure of CD47 binding.

[5] = target: T3, full-length human SIRPαV1 D→E on Expi-CHO cells (human, UniProt P78324 31-504); assay: flow cytometry, Expi-CHO cells
T3 construct: the entry already carries the change (PDDV to PEDV)
Protocol: (§2) Expi-CHO parental cells are transduced with lentiviruses containing either full-length wild-type human SIRPαV1 allele (NP_542970.1) or full-length human SIRPαV1 with amino acid point mutations (Table 56) and sorted to achieve matching expression levels. These cells are blocked with donkey IgG and incubated on ice with increasing concentrations of antibodies for 60 minutes, washed and stained with AF647-conjugated donkey F(ab′)₂ anti-human IgG antibodies. Stained cells are washed, fixed, and analyzed by flow cytometry. Median fluorescent intensity is determined and used as a measure of antibody binding.

[6] = target: T1, full-length human SIRPαV1 (NP_542970.1) …; assay: flow cytometry, Expi-CHO cells
Protocol: as §2

[7] = target: T4, full-length human SIRPαV1 N→E on Expi-CHO cells (human, UniProt P78324 31-504); assay: flow cytometry, Expi-CHO cells
T4 construct: the entry already carries the change (TKRN to TKRE)
Protocol: as §2

[8] = target: T5, full-length human SIRPαV2 E→N on Expi-CHO cells (human, UniProt P78324 31-504); assay: flow cytometry, Expi-CHO cells
T5 construct: the entry already carries the change (TKRE to TKRN)
Protocol: as §2, with “SIRPαV2” for “SIRPαV1”, “(CAA71403.1)” for “(NP_542970.1)”, “58)” for “56)”

[9] = target: T6, full-length human SIRPαV2 D→E on Expi-CHO cells (human, UniProt P78324 31-504); assay: flow cytometry, Expi-CHO cells
T6 construct: the entry already carries the change (SPDT to SPET)
Protocol: as §2, with “SIRPαV2” for “SIRPαV1”, “(CAA71403.1)” for “(NP_542970.1)”, “58)” for “56)”

[10] = target: T2, full-length human SIRPαV2 (CAA71403.1) …; assay: flow cytometry, Expi-CHO cells
Protocol: as §2, with “SIRPαV2” for “SIRPαV1”, “(CAA71403.1)” for “(NP_542970.1)”, “58)” for “56)”

[11] = target: T2, full-length human SIRPαV2 (CAA71403.1) …; assay: flow cytometry, CD14+ monocytes V2V2
Protocol: as §1

[12] = target: T7, full-length human SIRPβ1 D→H on Expi-CHO cells (human, UniProt O00241 30-398); assay: flow cytometry, Expi-CHO cells expressing full-length human SIRPβ1 D→H
T7 construct: the entry already carries the change (PDDV to PDHV)
Protocol: These cells are blocked with donkey IgG and incubated on ice with increasing concentrations of antibodies for 60 minutes, washed and stained with AF647-conjugated donkey F(ab′)₂ anti-human IgG antibodies. Stained cells are washed, fixed, and analyzed by flow cytometry. Median fluorescent intensity is determined and used as a measure of antibody binding.

[13] = target: T8, full-length human SIRPβL H→D on Expi-CHO cells (human, UniProt Q5TFQ8 30-398); assay: flow cytometry, Expi-CHO cells
T8 construct: the entry already carries the change (PDHV to PDDV); also called βL WT H→D
Protocol: Expi-CHO parental cells are transduced with lentiviruses containing either full-length wild-type human SIRPβL (Q5TFQ8) or full-length human SIRPβL with a single amino acid point mutation (Table 62) and sorted to achieve matching expression levels. These cells are blocked with donkey IgG and incubated on ice with increasing concentrations of antibodies for 60 minutes, washed and stained with AF647-conjugated donkey F(ab′)₂ anti-human IgG antibodies. Stained cells are washed, fixed, and analyzed by flow cytometry. Median fluorescent intensity is determined and used as a measure of antibody binding.
A single amino acid substitution (H→D) introduced within the loop region maintained, strengthened, or facilitated antibody binding to these cells (FIG. 34B, Table 63).

[14] = target: ED-tagged human SIRPα V2 receptor on Jurkat signaling reporter cells (human, UniProt P78324 31-504); assay: cell-based or functional assay

| Binder | EC50 [1] | Blockade of Cellular CD47-Mediated SIRPα Signaling; IC50 [2] | EC50 [3] | IC50 [4] | EC50 [5] | EC50 [6] | EC50 [7] | EC50 [8] | EC50 [9] | EC50 [10] | EC50 [11] | binding result [12] | EC50 [13] | Blockade of Cellular CD47-Mediated SIRPα Signaling; IC50 (* Inhibition plateaus at <100%) [14] | Blockade of Cellular CD47-Mediated SIRPα Signaling; IC50 [14] |
| --- | --- | --- | --- | --- | --- | --- | --- | --- | --- | --- | --- | --- | --- | --- | --- |
| Antibody B (antibody, human IgG1, kappa, L234A L235A, V domains shown) VH: QVQLVQSGAEVKKPGASVKVSCKASGYTFTGNYMHWVRQAPGQGLEWMGWINPNSGGTNYAQKFQGRVTMTRDTSISTAYMELSRLRSDDTAVYYCVSGSGWYENYYYYGMDVWGQGTTVTVSS VL: DIQMTQSPSSVSASVGDRVTITCRASQGISSWLAWYQQKPGKAPKLLIYAESSLQSGVPSRFSGSGSGTDFTLTISSLQPEDFATYYCQQANSFPLTFGGGTKVEIKR | 26.6 nM | 0.76 nM | 14.2 nM | 2.55 nM | 3.7 nM | 3.8 nM | 4.5 nM | 4.1 nM | 3.7 nM | 3.6 nM | 21.8 nM |  |  |  |  |
| Antibody E22 (antibody, human IgG1, kappa, L234A L235A, V domains shown) VH: QVQLQESGPGLVKPSETLSLTCTVSGGSIRDYYWSWIRQPPGKGLEWIGFIYYNGRTFYQSSLKSRVTISLDTSKNQFSLKMTSVTAADTAVYYCARVRAYSGIGLDGTDVWGQGTTVTVSS VL: DIVMTQSPLSLPVTPGEPASISCRSSQSLLYSTGYTYLDWYLQRPGQSPQLLIYGGSSRASGVPDRFSGSGSGTDFTLKISRVEAEDVGVFYCGQALQTPLTFGQGTKVEIKR | 0.8 nM | 0.07 nM |  | 0.25 nM | 0.7 nM | 0.8 nM | 0.9 nM | 0.4 nM | 0.4 nM | 0.4 nM | 0.4 nM | no binding (tested: about 67 nM) | 0.7 nM | 0.07 nM |  |
| Antibody A (antibody, human IgG1, kappa, L234A L235A) heavy: not shown light: DIQMTQSPSSLSASVGDRVTITCRASQDINNYLAWFQQKPGKAPKSLIYTASSLHSGVPSKFSGSGSGTDFTLTISSLQPEDFATYYCQQYVSYPYTFGQGTKLEIKRTVAAPSVFIFPPSDEQLKSGTASVVCLLNNFYPREAKVQWKVDNALQSGNSQESVTEQDSKDSTYSLSSTLTLSKADYEKHKVYACEVTHQGLSSPVTKSFNRGEC |  | 0.04 nM |  |  |  |  |  |  |  |  |  | no binding (tested: about 67 nM) | 0.5 nM |  | 0.04 nM |
| Antibody A10 (antibody, human IgG1, kappa, L234A L235A) heavy: not shown light: DIQMTQSPSSLSASVGDRVTITCRASQDINNYLAWFQQKPGKAPKSLIYTASSLHSGVPSKFSGSGSGTDFTLTISSLQPEDFATYYCQQYVSYPYTFGQGTKLEIKRTVAAPSVFIFPPSDEQLKSGTASVVCLLNNFYPREAKVQWKVDNALQSGNSQESVTEQDSKDSTYSLSSTLTLSKADYEKHKVYACEVTHQGLSSPVTKSFNRGEC |  | 0.04 nM |  |  |  |  |  |  |  |  |  | no binding (tested: about 67 nM) | 0.6 nM |  | 0.04 nM |
| Antibody C (antibody, human IgG1, kappa, L234A L235A, V domains shown) VH: EVQLVESGGGLVQPGGSLRLSCAASGFTFSSYDMHWVRQATGKGLEWVSVIGIAGDTYYPGSVKGRFTISRENAKNSLYLQMNSLRVGDTAVYYCARGGSWDDAFDIWGQGTMVTVSS VL: DIQMTQSPSSLSASIGDKVTITCRASQDINNYLAWFQQKPGKAPKSLIYTASSLQSGVPSKFSGSGSGTDFTLTISSLQPEDFATYYCQQYVSYPYTFGQGTKLEIKR | 0.6 nM | 0.04 nM | 0.5 nM | 0.04 nM | 0.2 nM | 0.3 nM | 0.3 nM | 0.2 nM | 0.2 nM | 0.2 nM | 0.3 nM | no binding (tested: about 67 nM) | 0.3 nM |  | 0.03 nM |
| Anti-SIRPα antibody KWAR23 (antibody, V domains shown) VH: EVQLQQSGAELVKPGASVKLSCTASGFNIKDYYIHWVQQRTEQGLEWIGRIDPEDGETKYAPKFQDKATITADTSSNTAYLHLSSLTSEDTAVYYCARWGAYWGQGTLVTVSS VL: QIVLTQSPAIMSASPGEKVTLTCSASSSVSSSYLYWYQQKPGSSPKLWIYSTSNLASGVPARFSGSGSGTSYSLTISSMEAEDAASYFCHQWSSYPRTFGAGTKLELK | 0.2 nM |  | 0.5 nM | 0.07 nM | 0.2 nM | 0.3 nM | 0.5 nM | 0.2 nM | 0.2 nM | 0.2 nM | 0.1 nM |  | 0.5 nM |  |  |
| Antibody D (antibody, human IgG1, kappa, L234A L235A, V domains shown) VH: EVQLVESGGGLVQPGGSLRLSCAASGFTFSSFDMHWVRQPTGKGLEWVSTIGIAGDTYFPGSVKGRFTISRENAKNSLYLQMNSLRAGDTAVYYCARGGNWDDALDIWGQGTMVTVSS VL: DIQMTQSPSSLSASVGDRVTITCRASQDINNYLAWFQQKPGKAPKSLIYTASSLQSGVPSKFSGSGSGTDFTLTISSLQPEDFATYYCQQYNTYPYTFGQGTKLEIKR | 0.3 nM | 0.04 nM | 0.5 nM | 0.03 nM | 0.2 nM | 0.3 nM | 0.3 nM | 0.2 nM | 0.6 nM | 0.2 nM | 0.2 nM | no binding (tested: about 67 nM) | 0.2 nM |  | 0.04 nM |

From US20230012273A1 (Boehringer Ingelheim, published 2023)
